Assay results published in article PMC9612331.

Experiments:
[1] = molecular target: Aleutian mink disease virus (AMDV) capsid protein VP2 (Aleutian mink disease virus (AMDV)); experiment: cryo-EM structure
[2] = molecular target: Human parvovirus 4 (PARV4) capsid protein VP2 (human parvovirus 4 (PARV4)); experiment: cryo-EM structure

Row | Substance | stoichiometry N [1] | stoichiometry N [2]
1 | Aleutian mink disease virus (AMDV) capsid protein VP2 (natural protein) | 60 | –
2 | Human parvovirus 4 (PARV4) capsid protein VP2 (natural protein) | – | 60
